US12059562B2, “Systems for electrical stimulation” (priority 2018, dated 2024)

System: Micrococcus lysodeikticus cells
Test: Lysozyme enzyme activity assay
Type: biochemical
Details: micropost tips 80% lysozyme and 20% PEO 200k versus uncompressed powder
Method: To measure the activity of lysozyme, the assay provided by Sigma Aldrich was used which measures the amount of lysed Micrococcus lysodeikticus cells. Briefly, a 200 unit/mL Lysozyme solution in 50 mM Potassium Phosphate Buffer was added to a 0.015% [w/v] Micrococcus lysodeikticus cell suspension in the same buffer. The decrease was recorded in A450 over 5 minutes. Nine micropost tips were fabricated from 80% lysozyme and 20% PEO 200k and dissolved sets of three micropost tips together. Triplicate assays were performed on each dissolved solution for a total of nine tests and the results were compared to the results of a solution made with lysozyme that was not compressed into a micropost tip.

## lysozyme
  enzymatic activity after the manufacturing process: maintain their activity
